Target: T1, 6xHis-tagged human Hub1 (human, UniProt Q9BZL1 1-73)
T1 construct: human Hub1 (UBL5) expressed from pET28a; also called UBL5; purified Hub1; source: E. coli BL21-CodonPlus (DE3)-RIL, purified (Ni-NTA, Superdex 75)
T1 sequence: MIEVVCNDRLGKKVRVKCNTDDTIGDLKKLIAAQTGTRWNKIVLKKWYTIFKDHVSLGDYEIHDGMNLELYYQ
Test: crystal structure; Hub1 mixed with the HIND peptide at a molar ratio of 1:3, complex separated on Superdex 75; crystals at 20°C in 0.1 M Tris/HCl pH 9.0, 0.15 M sodium acetate, 20% PEG 4000; 2.0 Å
Conditions: both partners purified

binding result: binds
B1: hSnu66 HIND peptide (residues 117-135) (peptide)
peptide: SLSIEETNKLRAKLGLKPL
notes: residues 117-135 of human Snu66 (SART1), the single HIND element; source: synthetic peptide

From PMC4141198, “The conserved ubiquitin-like protein Hub1 plays a critical role in splicing in human cells” (Journal of Molecular Cell Biology, 2014)
